{"source": "patent US20060094663A1", "about": "(VALORISATION RECHERCHE SOCIETE EN COMMANDITE, published 2006)", "test_in_all_cases": "cell-based or functional assay", "key": {"[1]": {"target": "T1, IL-1R/IL-1RacP receptor on human cells (human, UniProt P14778 18-569; Q9NPH3 21-570)", "T1 sequence (looked up) 1": "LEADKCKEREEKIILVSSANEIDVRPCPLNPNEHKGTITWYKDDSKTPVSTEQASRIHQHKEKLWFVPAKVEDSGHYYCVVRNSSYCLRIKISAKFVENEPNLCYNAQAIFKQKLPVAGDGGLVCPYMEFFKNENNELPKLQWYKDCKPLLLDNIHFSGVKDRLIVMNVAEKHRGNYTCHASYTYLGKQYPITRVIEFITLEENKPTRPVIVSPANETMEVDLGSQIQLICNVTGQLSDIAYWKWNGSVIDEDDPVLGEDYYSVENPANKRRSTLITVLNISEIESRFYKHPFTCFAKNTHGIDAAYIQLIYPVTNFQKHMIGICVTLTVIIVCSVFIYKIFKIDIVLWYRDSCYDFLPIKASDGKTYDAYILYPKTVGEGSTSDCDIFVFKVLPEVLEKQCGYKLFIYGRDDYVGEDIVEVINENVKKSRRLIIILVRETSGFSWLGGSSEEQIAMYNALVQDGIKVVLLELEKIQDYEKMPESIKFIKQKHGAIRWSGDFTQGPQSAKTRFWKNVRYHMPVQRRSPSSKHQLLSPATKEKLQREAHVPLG", "T1 sequence (looked up) 2": "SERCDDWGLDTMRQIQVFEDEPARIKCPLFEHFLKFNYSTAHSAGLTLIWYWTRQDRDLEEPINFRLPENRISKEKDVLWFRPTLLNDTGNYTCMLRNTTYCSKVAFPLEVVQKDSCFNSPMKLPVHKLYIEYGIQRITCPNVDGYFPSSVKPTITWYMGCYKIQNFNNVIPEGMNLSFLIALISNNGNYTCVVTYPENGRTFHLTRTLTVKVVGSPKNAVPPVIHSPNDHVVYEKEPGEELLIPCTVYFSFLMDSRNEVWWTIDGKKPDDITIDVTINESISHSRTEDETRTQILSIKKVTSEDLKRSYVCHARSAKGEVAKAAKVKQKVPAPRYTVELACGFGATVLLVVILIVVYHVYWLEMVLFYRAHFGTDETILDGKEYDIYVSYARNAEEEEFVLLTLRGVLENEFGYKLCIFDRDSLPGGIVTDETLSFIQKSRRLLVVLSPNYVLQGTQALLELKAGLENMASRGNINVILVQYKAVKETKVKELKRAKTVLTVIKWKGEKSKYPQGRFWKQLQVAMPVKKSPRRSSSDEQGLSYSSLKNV"}, "[2]": {"target": "T2, IL-1R/IL-1RacP receptor on porcine cells and vessels (porcine (piglet), UniProt A0A5G2QSI4 18-572)", "T2 sequence (A0A5G2QSI4 entry or part of it)": "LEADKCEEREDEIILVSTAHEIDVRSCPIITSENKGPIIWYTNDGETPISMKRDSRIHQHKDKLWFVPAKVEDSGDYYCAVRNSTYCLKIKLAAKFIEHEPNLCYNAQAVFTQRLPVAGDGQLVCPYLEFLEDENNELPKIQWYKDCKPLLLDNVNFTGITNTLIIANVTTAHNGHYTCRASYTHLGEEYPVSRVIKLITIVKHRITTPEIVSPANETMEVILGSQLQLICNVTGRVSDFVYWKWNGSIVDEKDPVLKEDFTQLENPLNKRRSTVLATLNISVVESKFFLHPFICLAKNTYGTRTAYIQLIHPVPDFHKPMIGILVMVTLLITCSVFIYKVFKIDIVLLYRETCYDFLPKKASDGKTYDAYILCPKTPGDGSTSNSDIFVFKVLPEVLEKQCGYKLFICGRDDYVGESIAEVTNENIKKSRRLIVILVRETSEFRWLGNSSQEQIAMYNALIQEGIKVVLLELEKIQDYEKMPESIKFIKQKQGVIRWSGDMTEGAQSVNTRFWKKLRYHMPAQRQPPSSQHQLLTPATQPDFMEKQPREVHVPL"}, "[3]": {"target": "T1, IL-1R/IL-1RacP receptor on human cells", "remark": "listed apart in the source"}, "[4]": {"target": "T1, IL-1R/IL-1RacP receptor on human cells", "remark": "listed apart in the source"}, "[5]": {"target": "T2, IL-1R/IL-1RacP receptor on porcine …", "remark": "listed apart in the source"}, "[6]": {"target": "IL-1R/IL-1RacP receptor (cells or tissue whose species is not stated)"}}, "note": "Where no end group is shown, it is not given here. [ ]: non-standard residue; d: D form. dOrn = NCCC[C@@H](N)C(=O)O"}
{"binder": "[dK][dY][dT][dP][dE][dL]", "note": "[API-101.133]", "values": [{"measurement": "Emax (%), IL-1β-induced TF-1 proliferation", "setting": "[1]", "value": "< 10", "unit": "%"}]}
{"binder": "[dR][dY][dT][dP][dE][dL]", "note": "[API-101.113]", "values": [{"measurement": "Emax (%), IL-1β-induced PGE2 synthesis in endothelial cells (porcine)", "setting": "[2]", "value": 80, "unit": "%"}, {"measurement": "IC50, IL-1β-induced PGE2 synthesis in endothelial cells (porcine)", "setting": "[2]", "value": 0.0074, "unit": "nM"}]}
{"binder": "[dR][dW][dT][dP][dE][dL]", "note": "[API-101.128]", "values": [{"measurement": "Emax (%), IL-1β-induced TF-1 proliferation", "setting": "[1]", "value": 100, "unit": "%"}, {"measurement": "IC50, IL-1β-induced TF-1 proliferation", "setting": "[1]", "value": 3, "unit": "nM"}]}
{"binder": "[dR][dY][dT][dP][dE][dV]", "note": "[API-101.129]", "values": [{"measurement": "Emax (%), IL-1β-induced TF-1 proliferation", "setting": "[1]", "value": 50, "unit": "%"}, {"measurement": "IC50, IL-1β-induced TF-1 proliferation", "setting": "[1]", "value": 400, "unit": "nM"}]}
{"binder": "[dR][dY][dT][dP][dD][dL][dA]", "note": "[API-101.117]", "values": [{"measurement": "Emax (%), IL-1β-induced PGE2 synthesis in endothelial cells (porcine)", "setting": "[2]", "value": 100, "unit": "%"}, {"measurement": "IC50, IL-1β-induced PGE2 synthesis in endothelial cells (porcine)", "setting": "[2]", "value": 0.01, "unit": "nM"}]}
{"binder": "[dR][dW][dT][dP][dE][dL][dA]", "note": "[API-101.116]", "values": [{"measurement": "Emax (%), IL-1β-induced proliferation in TF-1 cells (human)", "setting": "[3]", "value": 75, "unit": "%"}, {"measurement": "IC50, IL-1β-induced proliferation in TF-1 cells (human)", "setting": "[3]", "value": 0.5, "unit": "nM"}, {"measurement": "Emax (%), IL-1β-induced PGE2 synthesis in endothelial cells (porcine)", "setting": "[2]", "value": 45, "unit": "%"}, {"measurement": "IC50, IL-1β-induced PGE2 synthesis in endothelial cells (porcine)", "setting": "[2]", "value": 0.013, "unit": "nM"}]}
{"binder": "[dOrn][dY][dT][dP][dE][dL][dA]", "note": "[API-101.115]", "values": [{"measurement": "Emax (%), IL-1β-induced proliferation in TF-1 cells (human)", "setting": "[3]", "value": 100, "unit": "%"}, {"measurement": "IC50, IL-1β-induced proliferation in TF-1 cells (human)", "setting": "[3]", "value": "~0.001", "unit": "nM"}]}
{"binder": "[dY][dT][dV][dE][dL][dA]", "note": "[API-101.11]", "values": [{"measurement": "percent of IL-1β-induced proliferation of WI-38 human lung fibroblasts abolished", "setting": "[4]", "value": 100, "unit": "%"}]}
{"binder": "[dA][dP][dR][dY][dT][dV][dE][dL][dA]", "note": "[API-101]", "values": [{"measurement": "IC50, IL-1-induced PGE2 synthesis, WI-38 cells", "setting": "[4]", "value": 790, "unit": "nM"}, {"measurement": "IC50, effect of IL-1β (10 ng/ml) on proliferation of A549 carcinoma cells, 3H-thymidine", "setting": "[4]", "value": 1000, "unit": "nM"}, {"measurement": "percent of IL-1β-induced proliferation of WI-38 human lung fibroblasts abolished", "setting": "[4]", "value": 65, "unit": "%"}, {"measurement": "IC50, IL-1-induced PGE2 synthesis, endothelial cells", "setting": "[5]", "value": 220, "unit": "nM"}, {"measurement": "IC50, IL-1-induced PGE2 synthesis, microvascular endothelial cells", "setting": "[5]", "value": 1000, "unit": "nM"}, {"measurement": "IC50, IL-1β-induced vasodilation of piglet pial vessels (ex vivo)", "setting": "[5]", "value": 182, "unit": "nM"}]}
{"binder": "[dR][dY][dT][dV][dQ][dL][dA]", "note": "[API-101.103]", "values": [{"measurement": "IC50, IL-1-induced PGE2 synthesis, human WI-38 cells", "setting": "[4]", "value": 0.05, "unit": "pM"}]}
{"binder": "[dOrn][dY][dT][dP][dE][dL]", "note": "[API-101.126]", "values": [{"measurement": "Emax (%), IL-1β-induced TF-1 proliferation", "setting": "[1]", "value": 0, "unit": "%"}]}
{"binder": "[dR][dF][dV][dP][dE][dL][dA]", "note": "[API-101.127]", "values": [{"measurement": "Emax (%), IL-1β-induced TF-1 proliferation", "setting": "[1]", "value": "< 30", "unit": "%"}]}
{"binder": "[dK][dY][dT][dP][dE][dL][dA]", "note": "[API-101.114]", "values": [{"measurement": "Emax (%), IL-1β-induced PGE2 synthesis in endothelial cells (porcine)", "setting": "[2]", "value": 50, "unit": "%"}, {"measurement": "IC50, IL-1β-induced PGE2 synthesis in endothelial cells (porcine)", "setting": "[2]", "value": 0.002, "unit": "nM"}]}
{"binder": "[dR][dY][dT][dV][dE][dL][dA]", "note": "[API-101.10]", "values": [{"measurement": "IC50, IL-1-induced PGE2 synthesis, WI-38 cells", "setting": "[4]", "value": 0.2, "unit": "nM"}, {"measurement": "percent of IL-1β-induced proliferation of WI-38 human lung fibroblasts abolished", "setting": "[4]", "value": 100, "unit": "%"}, {"measurement": "IC50, IL-1-induced PGE2 synthesis, endothelial cells", "setting": "[5]", "value": 1.2, "unit": "nM"}, {"measurement": "IC50, IL-1-induced vasodilation (ex vivo vasomotricity, protocol of Example 1)", "setting": "[5]", "value": 10.8, "unit": "nM"}, {"measurement": "fold potency against API-101, IL-1-induced vasodilation (ex vivo)", "setting": "[5]", "value": 100, "unit": "fold"}]}
{"binder": "[dR][dY][dT][dP][dE][dL][dA]", "note": "[API-101.107]", "values": [{"measurement": "IC50, IL-1-induced PGE2 synthesis, human WI-38 cells", "setting": "[4]", "value": 0.1, "unit": "pM"}, {"measurement": "IC50 (FIG. 15; cell type not given)", "setting": "[6]", "value": 0.0012, "unit": "nM"}]}
